The target in this data set is T1, GCN4 basic region peptide with 3-residue linker (monomeric) (UniProt P03069 SEQ:1-24).
T1 chain: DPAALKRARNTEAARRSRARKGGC
Description: EMSA; disulfide-tethered complex, reduction gel shift with 2-ME or DTT, pH 7.5 or 8.5; outcome only in figure. The note with it: protein: synthetic; tags: synthetic peptide, disulfide-tethered to DNA through linker thiol. The method, then:
To test if the reduction potential of the disulfide bond corresponds to the affinity of the peptide for the adjacent DNA sequence, wild-type and mutant double-stranded DNA-peptide complexes were incubated in the presence of reducing agents 2-mercaptoethanol (2-ME) or dithiothreitol (DTT). (FIG. 4) The free (lower bands) vs. coupled DNA molecules (upper bands) were resolved on 20% nondenaturing polyacrylamide gel after. The wild-type peptide-DNA complex (wt) was consistently more resistant to reduction than the complex having mutation in either peptide (L, P) or DNA sequence (M3). Peptide-DNA complexes differ with respect to the gel mobility as well. The mutant complexes (L, P, M3) have lower gel mobility than the wild-type complex (wt), although the corresponding free (uncomplexed) DNA molecules run at the same speed.
Annealing of the oligonucleotide-peptide complex with the complementary oligonucleotide was done as described above, in the binding buffer of the same composition and desired pH (7.5 or 8.5). 2-ME or DTT was added and reactions were incubated at defined temperature in a water bath. Glycerol-running dye mixture was added (final concentration of glycerol is 5%) and reactions were loaded on 20% nondenaturing gel and run at low voltage (up to 120 V) for 16–24 hours at room temperature. (See FIG. 4).

B1: WT GCN4 half-site 39-mer (dsDNA)
DNA 1: AAGGTTAAACGTGCAAGTCATCGGTATAGGTCGAGAAGT
DNA 2: ACTTCTCGACCTATACCGATGACTTGCACGTTTAACCTT
modifications: N6-thioalkyl-dA adjacent to the half-site (disulfide tether)
In the case of B1, the binding result is listed as “binds”.
